Results published in a protein production outcome set (Wang et al. 2014).

Assay: label from the status in PepcDB records

Row | Sequence | protein production
1 | MSGQTFEKIGGMFLDKQRKEGKSKATLDKTAYHLKLANHDFGKKPITAITAPMILRTLRKVEAKGNYETAHRLRARIGSVFRYAVASGLAETDPTYALRDALIRPTRQHLEHHHHHH | failed
2 | MNRRKISALLLSCTLAMNISSFNEIVLADENKGEEVQKESHNESNCIAGDYHEVNNGNAKNTENTPVINGIKVNKQLIDINYSQGVTINPKYIVIHDTDNRQAGANAMANRNYFANHPNAKASAHYIIDEGNIIQALEDTWKGWHVGDGNNPNINNSTTIAIELCVNKENDFDKTLENGIELTKYLVNKYNIPAENVVMHRDASGKTCSRMMIEDRPSLWPYFKERISGGDGSLEDDGLKPKMQGKVTNASVLNVRESPSTSGRIVHKLNRNQVVGIYEELNGWYKIDYIDGVKKKYGYVSKDYISIINENPEDEETNGDIEIEKPSVSVNKQGIVKVNSALNMRSGPGSNYGVIGTLRNNDEVEIIKEVDGWYEIKFNGKSGYVSSQYIKVLDNESNEEKPVEPEKPSVSLNKQGVVKVNSALNMRSGPGSNYGVIGTLRNNDEVEIIKEVDGWYEIKFNGKSGYVSSQYIKVLDNESNEEKPVEPEKPSVSLNKQGVVKVNSALNMRSGPGSNYGVIGTLRNNDKVEIIKEVDGWYEIRFNGKVGYASKSYITIVNEGSNNGTDSVIKEGTVYGVSTNLNVRTGPGTSYQVIGYLLSGDKVKILGDENGWYKVQFNASTGTKNGYVSKDYIKV | failed
3 | METGAGIGLYPLHRCKTIYLVRHAQGIHNVDGEKNYKAYMSHDYFDAELTQLGWKQVDSLRKHVHSSGLHKKIELVISSPLMRTLQTAVGVFGGEGYTDMSDVLPLMVANAGNSSRAAISSLNCPPVITEESCREHLGVHPCDQRRSISDYQFLFPAVDFSLIESEEDKLWKADVRETIEELAARGKKFLNWLWTRKEKEIAIVTHSGFLFHTLNALQNECHPDVKKEICGHFANCELRSMVIVDRSMLGSDSSVTDYPGKIPKGIDLPSDAVVDDNNIKVE | not failed
4 | MGVQSAVRVHRAISEIGQDAWDACAASTGDPFVSYDFLSILEESGCVAARTGWAPQHLTVLDEADQVAGVMPLYLKSHSQGEYVFDHSWADAYERAGGRYYPKLQCSSPFSPVTGSRLIVRPDIDAAEGRSALMGGALTLCERMGASSLHVTFPVEDQWRWMGERGMLLRQDQQYHWENRGYETFDDFLGALSANRRKTIRRERRDAQEGLEIVALTGADLTEDHWDAFFAFYMDTGGRKWGRPYLNRPFFSLLGQRMADKVLLILARRPGGPFIAGALNLLGRDCLYGRHWGCVEDAPFLHFELCYYQAIEHAIRLGLPRVEAGAQGQHKIARGYLPSAVYSAHWIADPMLREPVARYLERERAAVESDMEMLTEEYSPFREER | failed
5 | MDAREWAMLIALSLLWGGSFFFIGVAVKELPPVTIVTLRVSLAAVALLVVCRIMGLRLPREWAVWRAFFGMGLLNNIIPFCLIVWGQTQIASGLASILNATTPLFTVIVAHFLTADEKMTGNKLAGVLIGFVGVATMIGPAAFGGSSGLWGQIAILGAAISYSFAGIFGRRFKAMGVPPLMTATGQISSSTLMLIPAALLIDKPWTLAMPGLGTWGALIGIALLSTALAYLIFFRILASAGATNLALVTFLIPVSAILLGSLILGEQLEIKHFAGMAMIAAGLAAIDGRLPVKLRSLLRNAPA | failed
6 | MSVIATILAYAGLAIVSTVVVWKGSELLESSTEKLSGYYQLPPLVQGSIVLAVGSSFPELSTAVLSAALHGDFELGVAAVVGSALFNILMIPALAGLWAEERLESTRDLIYKETQFYLISIVVLLLMFSFAVIYNPLAGGTDAQVGGVTRGLALLPLALYAVYVYLQYQDTRDHQPEAPPEDIHLPKQGTRLVGSLLIILIGVEGLIRSAVAFGDIFGTPSFLWGITVVAAGTSVPDAFVSIRASRAGNPVTSVANVLGSNIFDLLVCIPAAALVAGTVAINYSVGMPMMGVLSLATLIVLLTMRSEMVLTTPEAWGLIALYLAFVVWMGAETVGTVDLIPHLPPPAHTP | failed
7 | MPAFRVPRVRRAQHAEVALGAVLGVMLIGLSVLISRFHLQPVEGVTVLAQLADASLGHNWAFYVVQFATMILLALSANTSFGGLPVLLKLPARDNYLPHVFALKADRQVHRHGVLTLAGVVAALLVFSGGDTNTLVPLFAIGVFIGFTIAQVGMVRHWRAE | failed
8 | TKIKSVRTRVWNWTGPTVPPQGNFCTNASDALWIQGDAMASFRFHQWLTCEVETEDGTIGIGNAALAPNVVKQAIDEWYAPLVIGEDPFDYAYLWEKMYRRTHAWGRKGIGMTAISAIDIAIWDLMGKLVGKPVFKLLGGRTKEKIPVYYSKLYADSIPAMQAEAEEAQKHGYQGYKTRFGYGPKDGPAGMRENLKRVEALREVLGYDVDLMLECYMGWNLDYTKRMLPKLERFEPRWLEEPVIADDVAGYAELNAMGIVPISGGEHEFSVMGCAELINRKAVSVLQYDTNRVGGITAAQKINAIAEAAQIIVIPHAGQMHNYHLTMANMNCPISEYFPVFDVEVGNELFYYIFDGDPEAVDGYLQLDDDTPGLGITISDAHLKHFEITE | not failed
9 | MFTESSPAMDPDLPESETRPEFNPSSTDSTAMAESTDAGEPTAFELASSQVTSVADLPPERFNSLDELTHDLGSLHELSTRGSWQAILEKISQARALFLLTKPHEHLTYLTYQVMALAKLRRSDEASHELNSLHDFDGTHYRYESFPEIYPNRRGSMVPFSLRWLYALIPTKLGNRQEGLDRLYVLLDFVRDRIREKESQSLESSVELWKKRETFVMNCLLGFHLGHKEFGVSLDLMKELINRDPLDPVLISKLGSVQMQFGDVEGAKTTFDRVEKMLNEGKSNGLLNEIQFNNLVGRNKALVYVVAKDYVSAVREYDKCIERDNSDIIAVNNKALCLMYLRDLSDAIKVMESALERVPTAALNESLVVNLCSMYELAYVNHTDVKRTLNNWIARVAPDDFDSSCTRV | failed
10 | MRLSELGTGEKGVIVKVLGHGGFRKRIVEMGFIKGKTVEVLLNAPLKDPIKYKVLGYEISLRRQEAEMIEVVSEEEAKKQAEKAVYHEGLPEDVSVKEEDMKRLALGKRRTINVALVGNPNSGKTSLFNLASGAHEHVGNYSGVTVDAKEGYFDFEGYHFRIVDLPGTYSLSAYTPEEIYVRRHIVDETPDVIINVVDSSNLERNLYLTTQLIDMNVRMVVALNIYDELESSGNTLDYHLLSKLFGVPMVPTVSKKNRGLDTLFHVVINLYEGVDFFDKQGNMNPEVLKDLTEWHDSLEDRKNHEEEHLEDYVREHKRKGRVFRHIHINHGPDLEKAIDAVKEEVSKNEFIRHKYSTRFLSIKLLENDPDIESFVRTLPNAGEIFRIRDKMAKRVQETMNEDCESAITDAKYGFISGALKETFTDNHLEQAQTTKVLDAIVTHRIWGYPIFFLFMYLMFEGTFVLGEYPMMGIEWLVGQIGDLIRNNMSEGPLKDMLVDGIVGGVGGVIVFLPNILILYFCISLMEDSGYMARAAFIMDKIMHKMGLHGKSFIPLIMGFGCNVPAIMASRTIENRKSRLITMLINPLMSCSARLPIYLLLVGAFFPNNASLVLLSIYAIGIFLAVLLARLFSKFLVKGDDTPFVMELPPYRMPTAKSIFRHTWEKGAQYLKKMGGIIMIASIIIWFLGYYPNHEAYETVAEQQENSYIGQLGRAIEPVIKPMGFDWKLGIGLISGVGAKELVVSTLGVLYVDDPEADEASLAERIPITPLVAFCYMLFVLIYFPCIAALAAIKQESGSWKWALFAACYTTGLAWLVAFSVYQIGGMFV | failed
11 | MSLCINPQCSKPQNPDNVLFCQTCGSELLLEGRYRVVSVLGGGGFGKTFAVNDTRTQTARVLKVLINNHPKAVELFQREAQVLALLNYPGIPTVEANGYFVYFPRNIQEPMHCLIMEKIEGLDLGEYLRQRDYRPIDEKLALQWFKEVVTILHQVHQQGLFHRDIKPSNIMLRADGRLVLIDFGTARSVTGTYIAKQAVGQVTGVISAGYTPSEQINGQAVQQSDFFALGRTFIYLLTGKEPSDPTIYNYLKDELHWRDGLLSSESNSVPPTVGYGVPPTVGDRTNILPQFADLLDQMMERLPGQRPQNTHIILQRLADIEKNLHPSSPPPPKPKGWTRRRLITVVGFSSLGLTGALAISRLLPKTTVIVSQEGGGDYKTIGAAMQNAQPGMRILVRPGLYQESLVLDKALKIIGDGAKAEIIIESKGASCLVVKTDQAEIRGLTFRSRAGTENKQYFAVDISQGQIILADCDITSDSLSGIGIHGATANPVIQKCQIHDGKQSGIYLYENSRGTIEDCDLFGNTTTEITVDAAQPIIRRCKIRQDKEGGILFRNQAQGTVEDCDIFNNNLSGIEIRDSSNPIIQKCRIHDNQQGDGILVHLNGRGTVEDCNIFGNGFSGVEIRDRGNPVIRRCNINKNKYYGVYAYKNSMGTVENCDLTGNIRSAINVDETSQLQRSGNVELEHHHHHH | failed
12 | MTERSFEGSAYSDYRSSHQKPGYGTDYAETFRSGYYAALWSRIERPLVEGILSPLGGPGRSCLDFACGTGRVAAVAGPLFGEVVGVDVSRSMLACARVPGNVKLVEADLTVAPLSRRFDVVTAFRFFLNAEDTLKRDALSAIHEHLNDGGLLVSNVHMNATSPMGLACRFLNRFQGRVVRSTLSIHAYRQMLVSNGFVVESVIGYGFLPRPGWLLPRLCETLVGPVETICRRAGVPGRFAQNFLVVARKQ | failed
13 | MDLRIKNKAKKIKAVFFDIDDTLRIKDTGYMPDSIKKVFESLQEKDILTGIASGRAPYGVVPEIRQLNPDFFVTINGSYVINHKGEELSNDPIPKDIIEKYVVWCQEIGIEYGFAGKDKAVVSKRTELVDKALVPVYGFCPVEPDFYKNHEVYHMWTFEDVGDSLQLSDELKEDVRLVRWHENSSDVIKNGISKASGLAHVLKKVHLKPENVLFFGDGPNDMEIFDYVGLKVAMGNGHGDLKEKADFITKNVEEDGILYALEELGLVEKELQFPQLDVTNDDAPMALIKTNYGDLKVKLFPKQAPKTVANFVALAKDGYYDGVIFHRVIKDFMIQGGDPTGTGMGGESIYGERFEDEFSEELYNLRGALSMANAGPNTNGSQFFIVQNQNLPYSAKELERGGWPKEIAAAYAENGGTPHLDRRHSVFGQLVDQASYEALDNIANVDTGVADKPIDDIVIESIEVIDDENRG | failed
14 | MAGIRLLPEEPETTPQQQARAAAAVTTTTTDSLASDDDRSIAADSWSIKSEYGSTLDDDQRHADAAEALSSANFRVSSDYSSDKEEPDADGGGQSMLGLQSYWDAAYSDELTNFREHGHAGEVWFGDDVMEIVTSWTKDLCVEISQRNMSVSENDVTTEVNDQADKYLSSWNVLDLGTGNGLLLHQLAKEGFSDLTGTDYSDGAVELAQHLSQRDGFPNIRFMVDDILDTKLEQQFKLVMDKGTLDAIGLHPDGPVKRVMYWDSVSKLVAPGGILVITSCNHTKDELVEEVENFNIRKSNLCRGDGNDANNVLSSGSEAASRIDQPPFEYLSHVRTYPTFMFSGSVGSRVATVAFLRK | failed
15 | MKPADLTNADRIALELGHAGRNAIPYLDDDRNADRPFTLNTYRPYGYTPDRPVVVVQHGVLRNGADYRDFWIPAADRHKLLIVAPTFSDEIWPGVESYNNGRAFTAAGNPRHVDGWTYALVARVLANIRAAEIADCEQVYLFGHSAGGQFVHRLMSSQPHAPFHAVTAANPGWYTLPTFEHRFPEGLDGVGLTEDHLARLLAYPMTILAGDQDIATDDPNLPSEPAALRQGPHRYARARHYYEAGQRAAAQRGLPFGWQLQVVPGIGHDGQAMSQVCASLWFDGRMPDAAELARLAGSQSA | not failed
16 | MVTDKSKKAKTEEENVEQIDAELVLSIEKLQEIQDDLEKINEKASDEVLEVEQKYNVIRKPVYDKRNEIIKTIPDFWLTAFLSHPALGELLTEEDQKIFKYLSSLDVEDAKDVKSGYSITFSFNPNPFFEDGKLTKTFTFLEEGTTKITATPIKWKEGKGLANGVNHEKNGNKRALPEESFFTWFSDAQHKEDVEDEMQDEVADIIKEDLWPNPLTYFNNDADEEDFDGDDDGDEEEKEGDSDEDDDEEDEVGEE | failed
